# Source: patent US6087121A, “Chemiluminescent detection of heme proteins in biological samples” (Mayo Foundation for Medical Education and Research, priority 1999, dated 2000)
# “And” between values parts separate entries of the source, which are not always exact repeats. Equal entries are not always repeated.
# B1: Myeloperoxidase: myeloperoxidase obtained from Calbiochem (protein, UniProt P05164 165-745, looked up)
# Myeloperoxidase: VTCPEQDKYRTITGMCNNRRSPTLGASNRAFVRWLPAEYEDGFSLPYGWTPGVKRNGFPVALARAVSNEIVRFPTDQLTPDQERSLMFMQWGQLLDHDLDFTPEPAARASFVTGVNCETSCVQQPPCFPLKIPPNDPRIKNQADCIPFFRSCPACPGSNITIRNQINALTSFVDASMVYGSEEPLARNLRNMSNQLGLLAVNQRFQDNGRALLPFDNLHDDPCLLTNRSARIPCFLAGDTRSSEMPELTSMHTLLLREHNRLATELKSLNPRWDGERLYQEARKIVGAMVQIITYRDYLPLVLGPTAMRKYLPTYRSYNDSVDPRIANVFTNAFRYGHTLIQPFMFRLDNRYQPMEPNPRVPLSRVFFASWRVVLEGGIDPILRGLMATPAKLNRQNQIAVDEIRERLFEQVMRIGLDLPALNMQRSRDHGLPGYNAWRRFCGLPQPETVGQLGTVLRNLKLARKLMEQYGTPNNIDIWMGGVSEPLKRKGRVGPLLACIIGTQFRKLRDGDRFWWENEGVFSMQQRQALAQISLPRIICDNTGITTVSKNNIFMSNSYPRDFVNCSTLPALNLASWREAS
# Tests used:
# Hb [1] = test: S/N ratios of different chemiluminescent substrates with Hb; format: biochemical, human
# Method: (§1) Centricon ultrafiltration filters were obtained from Amicon (Daven, Mass.). Polystyrene tubes (5.0 mL volume, 75×12 mm) used for the assay were manufactured by Sarstedt (Arlington Heights, Ill.). The chemiluminescent substrate, 7-dimethylamino-naphthalene-1,2-dicarbonic acid-hydrazide (7-DNH) was purchased from Boehringer Mannheim (Indianapolis, Ind.). PS-1 acridan substrate (solution A and solution B) was obtained from Lumigen Inc. (Southfield, Mich.). […] Tween-20 and Sodium Chloride were purchased from Fisher Scientific (Fair Lawn, N.J.). General laboratory chemicals such as, boric acid, sodium acetate, Trizma base, HEPES, hydrogen peroxide (H2 O2) solution (30.0%), human hemoglobin, catalase, 6-amino-2,3-dihydro-1,4-phthallazinedione (4-aminophthalhydrazide), N-(4-Aminobutyl)-N-ethyl-isoluminol, Triton X-100, (3-[3-cholamidopropyl)dimethylammonio]-1-propanesulfonate) (CHAPS), hydrogen disulfite, methimazole, ofloxacin, ascorbic acid, ammonium chloride, EDTA, Hb, bilirubin, and lactoperoxidase (LPO) were purchased from Sigma Chemical Company (St. Louis, Mo.). Human heart myoglobin and myeloperoxidase were obtained from Calbiochem (La Jolla, Calif.) Thyroid peroxidase (TPO) was purchased from O.E.M. Concepts, Inc. (Toms River, N.J.). Eosinophil peroxidase was provided by Dr. Greipp (Mayo Clinic). Fresh EDTA anticoagulated blood was collected from donors showing no signs of sickness and washed with physiological saline to isolate RBC.
# (§2) Fresh urine specimens were obtained in routine commercial collection vessels. The specimens were, either, analyzed immediately or stored at 4° C. until analysis. The urine samples were prepared for analysis by adding CTAC to produce a 0.1% solution, unless otherwise noted, in order to lyse the erythrocytes, thereby releasing hemoglobin. The assays were performed in a 75×12 mm polystyrene tube. The assay solutions were prepared by adding to each tube 294 μL of high ionic strength buffer, 5.0 μL of the prepared urine samples or standards, and […] of substrate (0.4 mM solution of 7-DNH), unless otherwise noted. […] The standard curve was obtained by plotting chemiluminescence emission in Relative Light Units (RLU) versus Hb concentration (μg/mL) or number of RBCs (#RBC/high power field (hpf)). Cell counts were determined with the Yellow Iris® instrument and confirmed by a manual hemocytometer count.
# (§3) The substrate (7-DNH) and the ultrafiltered urine were prepared as described above. The kinetics of chemiluminescence was determined by monitoring the chemiluminescence signal over a 20 second time period following addition of the substrate (7-DNH) to ultrafiltered urine. Measurements were performed either in the presence or absence of Hb. Experiments performed in the absence of Hb provide background measurements in relative light units (RLU).
# Mb = test: S/N ratios of different chemiluminescent substrates with Mb; format: biochemical, human; settings: signal integrated over first five seconds
# Method: as §1, §2
# as §3, with “Experiments performed in the absence of Hb provide background measurements in relative light units (RLU).” left out
# Hb [2] = test: Chemiluminescence emission kinetics of 7-DNH with Hb; format: biochemical, human; settings: Hb in ultrafiltered urine, after H2O2
# Method: as §3
# leukocytes = test: Stability of leukocytes in urine with ofloxacin; format: cell-based; settings: 100 μg/ml ofloxacin, 4° C.
# Method: (§4) Intra- and inter-assay imprecision was performed for MPO standards, WBC standards and 3 urine samples. Intra- and inter-assay imprecision tests were performed as described for the Hb assay in Example 7. The effect of time on the stability of enzyme activity in the leukocytes was examined. The effect of adding a quinoline antimicrobial agent, ofloxacin, was also studied with respect to its stabilization of the leukocytes.
# Stability of leukocytes in the urine over time was improved by storing the urine samples at 4° C. The addition of 100 μg/ml of ofloxacin kept the leukocytes intact up to 20 hours later when the urines were maintained at 4° C. (FIG. 14).
# MPO [3] = biological target: T1, MPO (Homo sapiens, UniProt P05164); test: Effects of potential interfering substances in WBC (MPO, PS-1) assay; format: biochemical; settings: level giving signal equal to 5 WBC/high power field; highest tested: hemoglobin 250, myoglobin 200 μg/mL
# T1 sequence (P05164 49-745): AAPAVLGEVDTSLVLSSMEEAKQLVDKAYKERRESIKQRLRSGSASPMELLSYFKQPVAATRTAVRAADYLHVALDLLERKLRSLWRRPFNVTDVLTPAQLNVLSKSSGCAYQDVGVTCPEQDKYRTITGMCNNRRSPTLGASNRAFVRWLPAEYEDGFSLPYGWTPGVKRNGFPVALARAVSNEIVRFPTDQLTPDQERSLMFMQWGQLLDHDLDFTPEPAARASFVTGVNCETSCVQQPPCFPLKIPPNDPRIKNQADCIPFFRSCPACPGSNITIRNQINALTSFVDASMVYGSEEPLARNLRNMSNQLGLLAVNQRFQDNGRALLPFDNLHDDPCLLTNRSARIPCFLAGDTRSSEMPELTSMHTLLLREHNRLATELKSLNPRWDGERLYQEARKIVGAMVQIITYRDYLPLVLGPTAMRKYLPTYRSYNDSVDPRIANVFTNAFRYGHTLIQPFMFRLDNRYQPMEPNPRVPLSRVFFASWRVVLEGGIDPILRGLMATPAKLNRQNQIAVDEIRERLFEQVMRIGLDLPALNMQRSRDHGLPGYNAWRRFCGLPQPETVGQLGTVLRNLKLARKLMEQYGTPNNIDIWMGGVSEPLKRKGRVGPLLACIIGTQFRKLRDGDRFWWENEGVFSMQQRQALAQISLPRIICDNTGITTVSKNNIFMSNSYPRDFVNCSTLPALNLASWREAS
# Method: (§5) Urine samples were diluted 1:4 into distilled water to minimize inhibitory effects observed with hyperosmolal urines. Two μL of diluted urine were added to 12×75 mm polystyrene test tube containing 50 μL of the PS-1 solution. The tubes were incubated at 37° C. for 5 minutes. MPO activity was determined by chemiluminescence emission using a Turner TD-20e luminometer maintained at 37° C. Leukocyte counting was performed manually by using a hemacytometer chamber (Kova Glasstic slide, Hycor, Irvine, Calif.) on each urine sample to determine the number of cells/mL.
# Several possible interfering substances were added to urine and tested for inhibitory effects. Several common medications were also tested for potential inhibitory effects. […] Hb at concentrations of >10 μg/mL and Mb at concentrations >2 μg/mL were detected by the PS-1 substrate as the chemiluminescence emission was above the normal urine background. Samples grossly populated with bacteria caused slight inhibition of the MPO activity. Urine samples may contain many epithelial cells, casts, crystals, and numerous artifacts but none of these appear to interfere with the chemiluminescence emission from MPO.
# Hb [4] = test: Performance characteristics of Hb assay (precision, linearity, recovery, stability); parameters: species or system human; settings: with detergent and substrate
# Method: Ultrafiltered urine was prepared from a pool of fresh urine specimens by ultrafiltration through Centriprep-10 at 3,000×g in a Beckman J2-HC centrifuge (Beckman Instruments, Calif.). This treatment separates all biomolecules with molecular weight greater than 10,000 daltons so that the ultrafiltered urine is devoid of Hemoglobin (Hb) and Myoglobin (Mb). Stock standards were prepared with the ultrafiltrate containing known quantities of, either purified Hb or washed, packed RBCS. A cell count of the stock RBC standard was determined by the Yellow IRIS® Automated Imaging System (Independent Research Imaging Systems, Chatsworth, Calif.). Cells in urine are imaged under laminar flow conditions. Up to 80 images of cells are captured using a high speed charged-coupled device camera. Cell images are then identified and quantified. […] All chemiluminescence measurements were determined using a Berthold AutoLumat, LB 953 (EG&G Berthold, Aliquippa, Pa.).
# Fresh urine specimens were obtained in routine commercial collection vessels. The specimens were, either, analyzed immediately or stored at 4° C. until analysis. […] The emission of light was measured over five seconds following automatic injection of 300 μL of 5% hydrogen peroxide (pH 3.25). […] Cell counts were determined with the Yellow Iris® instrument and confirmed by a manual hemocytometer count. […]
# MPO [5] = biological target: T1, MPO; test: Effects of potential interfering substances in WBC (MPO, PS-1) assay; format: biochemical; settings: Hb <10 μg/mL
# RBC = test: Effectiveness of lysing agents in RBC assay; format: cell-based, human; settings: saponin 0.2 mg/mL, 30 second time period; mellitin 0.85 mg/mL; CTAC 0.1%
# Method: as §2
# Hb [6] = test: Interference studies in Hb assay (7-DNH chemiluminescence); format: biochemical, human
# Method: Numerous potential interfering substances, which either enhance or quench the signal generated by cyclic hydrazides, were evaluated. The effects of these potentially interfering substances on light emission was investigated at varying concentrations of the interfering composition. Assays were performed using serial dilutions of the potential interfering compositions in ultrafiltered urine at a fixed concentration of Hb. Comparisons of chemiluminescence emission were made between a reference solution (Hb in ultrafiltered urine) without added interfering compositions and solutions with added interferant.
# Generally, the value of 3 RBC per high power field is the normal cutoff point.
# Bilirubin and uric acid were examined as a possible negative interfering compositions because of their chemical structure which may quench energy emitted.
# MPO [7] = biological target: T1, MPO; test: Performance characteristics of WBC assay, MPO standard; settings: listed as MPO
# Method: as §5, §4
# MPO [8] = test: Effect of temperature/time on chemiluminescence emission from MPO with PS-1; format: biochemical
# Method: as §5
# The kinetics of chemiluminescence emission from MPO at 37° C. was followed over time using several urine samples diluted 4-fold in water (FIG. 11). […] Assays in Examples 10-16 were performed at 37° C., and chemiluminescence emission determined at 5 minutes.
molecule,measurement,setting,value
"CN(C)c1ccc2ccc3c(=O)[nH][nH]c(=O)c3c2c1 [7-DNH, 7-dimethylamino-naphthalene-1,2-dicarbonic acid-hydrazide]",sensitivity compared to other substrates tested,Hb [1]; by signal to noise ratio,most sensitive
same,S/N for Hb,Hb [1]; signal integrated over first five seconds,589
same,S/N for Mb,Mb,316
same,time of peak emission,Hb [2],2 s
CC1COc2c(N3CCN(C)CC3)c(F)cc3c(=O)c(C(=O)O)cn1c23 (stereo not drawn) [ofloxacin],leukocytes kept intact in urine,leukocytes,up to 20 hours
Hemoglobin: human hemoglobin purchased from Sigma,Interference,MPO [3],> 10 µg/mL
same,stability of Hb in the samples during the reaction,Hb [4],up to 25 minutes
same,interference with PS-1 assay,MPO [5],did not interfere
Mellitin: lysing agent,effectiveness as lysing agent,RBC,nearly as effective as 0.1% CTAC
B1,Level of Interference (in words),"Hb [6]; highest conc: ascorbic acid 10, bilirubin 10, Cu++/Mn++ 40, sodium azide 500 μg/mL, uric acid 1 mg/mL",only interfere at very high concentrations
same,Level of Interference,"Hb [6]; level producing a signal equivalent to 3 RBC per high power field, fixed Hb concentration",> 6.2 µg/mL
same,"CV%, MPO Standard","MPO [7]; Table 10, intra-assay precision, 0.01% Triton incorporated",2.05% and 3.56% and 4.33% and 4.63%
same,"CV%, MPO Standard","MPO [7]; Table 11, 0.01% Triton incorporated",6.36% and 8.39% and 8.26% and 5.50%
same,change in RLU (constant chemiluminescence emission),"MPO [8]; 37° C., between 3 and 20 minutes",less than 5%
same,time of maximum light emission,MPO [8]; room temperature,15 min
